Several values for one entry are separate records, joined by “and”; a condition that tells them apart may be missing. Equal values may be shown once.
Assays:
[1] = target: N-terminal 6X-His tagged TfAcCCB (carboxyltransferase subunit of Thermobifida fusca YX acyl-CoA carboxylase) (Thermobifida fusca YX); assay: SEC; Ni-NTA purified His-tagged TfAcCCB-TfAcCCE subcomplex or His-tagged TfAcCCA; Superdex 200 10/300 GL; 100 mM potassium phosphate pH 7.6, 0.75 mM DTT, 1 mM EDTA, 20% glycerol; apparent molecular weights against standards (Figure 2C, 2D)
[2] = target: N-terminal 6X-His tagged TfAcCCB (carboxyltransferase subunit of Thermobifida fusca YX acyl-CoA carboxylase) (Thermobifida fusca YX); assay: SEC; Ni-NTA purified holoenzyme from co-expression of all three subunits (wild-type or D427I TfAcCCB); Superdex 200 10/300 GL; 100 mM potassium phosphate pH 7.6, 0.75 mM DTT, 1 mM EDTA, 20% glycerol; apparent molecular weights against standards; peaks analysed by SDS-PAGE (Figure 2A, 2B)
[3] = target: N-terminal 6X-His tagged TfAcCCB (carboxyltransferase subunit of Thermobifida fusca YX acyl-CoA carboxylase) (Thermobifida fusca YX); assay: pull-down; subunits co-expressed in E. coli; Ni-NTA affinity chromatography via the His-tag on TfAcCCB; SDS-PAGE with Coomassie staining and densitometry, or Western blot with anti-S-tag antibody (Figure 1A, 1B)
[4] = target: TfAcCCA (biotin carboxylase / biotin carboxyl carrier subunit of Thermobifida fusca YX acyl-CoA carboxylase), without tag (Thermobifida fusca YX); assay: SEC; Ni-NTA purified holoenzyme from co-expression of all three subunits (wild-type or D427I TfAcCCB); Superdex 200 10/300 GL; 100 mM potassium phosphate pH 7.6, 0.75 mM DTT, 1 mM EDTA, 20% glycerol; apparent molecular weights against standards; peaks analysed by SDS-PAGE (Figure 2A, 2B)
[5] = target: N-terminal 6X-His tagged TfAcCCB (carboxyltransferase subunit of Thermobifida fusca YX acyl-CoA carboxylase) (Thermobifida fusca YX)

| stoichiometry N [1] | stoichiometry N [2] | stoichiometry N [3] [molar ratio] | stoichiometry N [4] | specificity constant (Vmax/Km) of acyl-CoA carboxylation by purified TfAcCCB, made with or without co-expressed TfAcCCE, mixed in vitro with purified TfAcCCA (acetyl-, propionyl- and butyryl-CoA) [5] [fold] | Substance |
| --- | --- | --- | --- | --- | --- |
| 6 and 12 and 18 | 6 and 9 and 3 |  |  |  | N-terminal 6X-His tagged TfAcCCB (carboxyltransferase subunit of Thermobifida fusca YX acyl-CoA carboxylase) (enzyme) |
|  |  | 1 | 3 and 6 and 9 |  | TfAcCCA (biotin carboxylase / biotin carboxyl carrier subunit of Thermobifida fusca YX acyl-CoA carboxylase), without tag (enzyme) |
|  |  | 1 |  | 20 | TfAcCCE (non-catalytic subunit of Thermobifida fusca YX acyl-CoA carboxylase), without tag (natural protein) |
